Paper PMC5663475, “SAV1 promotes Hippo kinase activation through antagonizing the PP2A phosphatase STRIPAK” (eLife, 2017)
Non-standard residues stand in square brackets, D forms with d. Residues, ends and D or L forms follow the SMILES beside them. pT = C[C@@H](OP(=O)(O)O)[C@H](N)C(=O)O

Assays:
[1] = target: human SAV1 WW2 (human) (UniProt Q9H4B6); assay: SEC; recombinant SAV1 WW1 and WW2 on a Superdex 75 gel filtration column
[2] = target: T1, MOB1^33-216 (Homo sapiens, UniProt Q9H8S9); assay: ITC, MOB1^33-216 with phospho-MST2 peptides; format: binding; conditions: MicroCal iTC200, 20 °C, 20 mM Tris pH 8.0, 50 mM NaCl, 50 µM protein titrated with 500 µM peptide, measured as controls
T1 construct: recombinant MOB1^33-216 and pT378-MST2 peptides
T1 sequence (Q9H8S9 33-216): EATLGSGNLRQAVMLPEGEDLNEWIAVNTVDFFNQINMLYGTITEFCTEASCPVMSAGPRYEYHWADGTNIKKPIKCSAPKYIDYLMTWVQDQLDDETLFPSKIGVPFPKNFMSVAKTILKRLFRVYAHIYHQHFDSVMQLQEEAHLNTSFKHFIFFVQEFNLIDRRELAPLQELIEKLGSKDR
Procedure: The binding affinities between purified recombinant human SLMAP-FHA (residues 1–140) and the phospho-MST2 peptides were measured using a MicroCal iTC200 calorimeter (GE Healthcare) at 20 °C. The binding affinities between recombinant MOB1^33-216 and pT378-MST2 peptides were measured as controls. Ratio of protein to peptide concentration was 1:10 for each experiment. A 50 µM SLMAP-FHA or MOB1^33-216 sample in the buffer containing 20 mM Tris, pH 8.0, 50 mM NaCl was titrated with 500 µM of phospho-MST2 peptide in the same buffer. All phospho-MST2 peptides were synthesized with the following sequences: pT325-MST2^320-329, ELDSHpTMVKT; pT336-MST2^331-340, VESVGpTMRAT; pT378-MST2^373-382, EEEDGpTMKRN; and pT378-MST2^371-401, DEEEEDGp[…]. Due to low solubility of pT325-MST2^320-329, 5% (v/v) DMSO was added to both protein and peptide buffers. Peptide concentration was measured using the spectrophotometer at wavelength λ = 205 nm. In all cases, thermograms were integrated using NITPIC method ([Keller et al., 2012]), imported to the SEDPHAT software ([Zhao et al., 2015]), and binding-model fits (A + B < ->AB) were made by fixing the protein concentration adjustment coefficients and allowing the software to adjust peptide concentration by a correction coefficient, as it is not 100% accurate due to the nature of the concentration measurements. […]

[3] = target: SLMAP (UniProt Q14BN4); assay: anti-FLAG IP, anti-SLMAP blot; conditions: reference: MST2 wild type; sites T325,T336,T378
[4] = target: PP2A A subunit (recombinant) (human) (UniProt P30153)
PP2A A subunit (recombinant) (human), sequence (P30153 whole entry, the tested form may be a part): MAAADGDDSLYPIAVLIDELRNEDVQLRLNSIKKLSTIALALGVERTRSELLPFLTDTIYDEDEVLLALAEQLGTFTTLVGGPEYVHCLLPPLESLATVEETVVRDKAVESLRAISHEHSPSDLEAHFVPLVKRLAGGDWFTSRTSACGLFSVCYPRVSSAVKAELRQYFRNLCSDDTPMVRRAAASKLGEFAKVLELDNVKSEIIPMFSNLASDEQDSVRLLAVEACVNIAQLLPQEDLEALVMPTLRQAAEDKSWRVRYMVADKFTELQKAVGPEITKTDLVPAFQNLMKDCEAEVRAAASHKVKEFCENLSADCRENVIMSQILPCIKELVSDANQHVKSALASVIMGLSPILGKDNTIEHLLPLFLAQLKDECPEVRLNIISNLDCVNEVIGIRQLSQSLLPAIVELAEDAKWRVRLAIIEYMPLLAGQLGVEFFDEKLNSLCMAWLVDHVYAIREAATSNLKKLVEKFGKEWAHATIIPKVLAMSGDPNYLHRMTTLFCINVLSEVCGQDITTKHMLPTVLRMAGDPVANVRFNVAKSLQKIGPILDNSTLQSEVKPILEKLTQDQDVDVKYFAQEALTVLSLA

[5] = target: the molecule itself; assay: AUC + SEC; sedimentation velocity at 4 °C, 50,000 rpm, 20 mM Tris pH 8.0, 200 mM NaCl, 5 mM MgCl2; gel filtration on Superdex 200; co-expressed and co-purified MST2-FL/SAV1 fragment complexes
[6] = target: T2, MST2-FL (recombinant full-length MST2) (human, UniProt Q13188 1-491); assay: pull-down; GST-SLMAP FHA on glutathione-Sepharose beads as bait, purified MST2 proteins in TBS (50 mM Tris pH 7.5, 150 mM NaCl) with 0.05% Tween, 2 h; Coomassie-stained gel; conditions: both partners purified
T2 construct: MST2, human, full length; also called full-length (FL) MST2; source: E. coli BL21 (DE3)-T1R, purified; alone or co-expressed and co-purified with SAV1 C-terminal fragments
T2 sequence (looked up): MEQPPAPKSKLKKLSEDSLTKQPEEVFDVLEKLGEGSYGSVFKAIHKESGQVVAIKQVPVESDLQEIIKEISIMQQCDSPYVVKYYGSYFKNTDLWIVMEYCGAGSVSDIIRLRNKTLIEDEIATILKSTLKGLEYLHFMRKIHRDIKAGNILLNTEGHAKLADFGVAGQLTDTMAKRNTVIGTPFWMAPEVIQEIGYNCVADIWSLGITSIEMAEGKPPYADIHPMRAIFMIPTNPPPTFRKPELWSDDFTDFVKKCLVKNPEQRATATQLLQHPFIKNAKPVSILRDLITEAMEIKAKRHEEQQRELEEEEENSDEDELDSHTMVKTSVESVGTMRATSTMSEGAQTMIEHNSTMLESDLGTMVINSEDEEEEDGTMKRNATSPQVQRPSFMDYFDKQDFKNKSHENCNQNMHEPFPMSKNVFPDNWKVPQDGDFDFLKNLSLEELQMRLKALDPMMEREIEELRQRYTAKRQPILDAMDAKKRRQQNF

[7] = test system: MST2; assay: MST2-SAV1 autophosphorylation (pT180); format: biochemical, human; conditions: 2.5 µM MST2-SAV1 complex, dephosphorylated by 0.5 µM PP2A A-C, then 5 µM okadaic acid; 2 mM ATP, anti-pT180 blot; at least two independent experiments
Procedure: For assaying MST2-SAV1 autophosphorylation, 2.5 µM MST2-SAV1-ΔN198 or MST2-SAV1-ΔN268 was dephosphorylated by 0.5 µM PP2A A-C core complex for 30 min at room temperature. Okadaic acid was then added to a final concentration of 5 µM and the reaction mixture was incubated on ice for another 30 min. The reaction mixture was diluted by a ratio of 1:5 at room temperature with a kinase reaction buffer containing 50 mM Tris (pH 7.5), 150 mM NaCl, 5 mM MgCl2, 2 mM ATP, and 1 mM DTT. At different time intervals, autophosphorylation was terminated by adding 2X SDS loading buffer and boiling for 5 min in 100 °C water bath. All samples were separated by SDS-PAGE and blotted by a specific antibody against pT180 of MST2.

[8] = test system: MST2; assay: In vitro MST2 kinase assay using MOB1 as substrate; format: biochemical, human; conditions: 0.5 nM MST2, 0.4 µM MOB1, pT35-MOB1 quantitative Western blot; two biological replicates
Procedure: For in vitro kinase assays, 0.4 μM MST2-FL or MST2-ΔL was incubated in the kinase reaction buffer containing 50 mM Tris (pH 7.5), 150 mM NaCl, 10 mM MgCl2, 1 mM ATP, 1 mM DTT, and 0.1 μCi/μl γ-^32P-ATP with 40 μM myelin basic protein (MBP). At different time intervals, an aliquot of reaction mixture was added with equal volume of 2X SDS sample buffer and followed by boiling for 5 min in 100 °C water bath. All samples were separated by SDS-PAGE and analyzed by autoradiography. For in vitro kinase assays using MOB1 as substrate, 0.5 nM MST2 was incubated with 0.4 µM recombinant purified MOB1 in the kinase reaction buffer. The phosphorylated MOB1 was analyzed by quantitative Western blotting using a specific antibody against pT35 of MOB1 (Cell Signaling). The signals were quantified with the Odyssey LI-COR imaging system. For in vitro kinase assays using GST-MST2 D146N as substrate, the kinase reaction was performed with MST2 KD for 30 min at room temperature.

[9] = test system: PP2A A-C; assay: In vitro PP2A inhibition assay (dephosphorylation of MST2 pT180); format: biochemical; conditions: 0.1 µM PP2A A-C, 1 µM MST2 KD, quantitative Western blot
Procedure: For PP2A A-C phosphatase inhibition assays, 0.1 µM PP2A A-C was mixed with the indicated concentrations of SAV1^1-90 and incubated at room temperature for 15 min. […] After 30 min incubation, 15 µl reaction mixture was quenched by the addition of the same volume of 2X SDS sample buffer and boiled for 5 min. The remaining pT180 of MST2 was analyzed by quantitative Western blot using a specific antibody against pT180 of MST2.

[10] = test system: PP2A A subunit; assay: Gel filtration co-fractionation of SAV1^1-90 with PP2A A subunit; format: binding; conditions: Superdex 200 gel filtration; PP2A A : SAV1^1-90 1:6 molar ratio; 20 mM Tris pH 8.0, 50 mM NaCl, 1 mM TCEP
Procedure: The N-terminal fragment of SAV1^1-90 was purified by denaturation method using 8 M urea according to the manufacturer’s instructions (Qiagen). SAV1^1-90 was refolded overnight at 4°C in a buffer containing 50 mM Tris (pH 7.5), 150 mM NaCl, 5 mM MgCl2, and 1 mM DTT. To obtain the PP2A A and SAV1^1-90 complex, PP2A A was mixed with refolded SAV1^1-90 at a 1:6 molar ratio and further purified by a Superdex 200 column equilibrated with a buffer containing 20 mM Tris (pH 8.0), 50 mM NaCl, and 1 mM TCEP. For comparison, PP2A A and SAV1^1-90 alone was run under the same condition, respectively.

“human SAV1 WW2 (from UniProt Q9H4B6 1-383) (domain or fragment)” gave a stoichiometry N [1] of 2.

CSCC[C@H](NC(=O)[C@@H](NC(=O)CNC(=O)[C@H](CC(=O)O)NC(=O)[C@H](CCC(=O)O)NC(=O)[C@H](CCC(=O)O)NC(=O)[C@@H](N)CCC(=O)O)[C@@H](C)OP(=O)(O)O)C(=O)N[C@@H](CCCCN)C(=O)N[C@@H](CCCNC(=N)N)C(=O)N[C@@H](CC(N)=O)C(=O)O [pT378-MST2^373-382] (H-EEEDG[pT]MKRN-OH) was tested, and the Kd [2] was 9.95 µM.

With MST2 (from UniProt Q13188) MST2 3TA the “binding against the reference” value [3] was “lost”.

For CSCC[C@H](NC(=O)[C@H](Cc1ccccc1)NC(=O)[C@H](CO)NC(=O)[C@@H]1CCCN1C(=O)[C@H](CCCNC(=N)N)NC(=O)[C@H](CCC(N)=O)NC(=O)[C@@H](NC(=O)[C@H](CCC(N)=O)NC(=O)[C@@H]1CCCN1C(=O)[C@H](CO)NC(=O)[C@@H](NC(=O)[C@H](C)NC(=O)[C@H](CC(N)=O)NC(=O)[C@H](CCCNC(=N)N)NC(=O)[C@H](CCCCN)NC(=O)[C@H](CCSC)NC(=O)[C@@H](NC(=O)CNC(=O)[C@H](CC(=O)O)NC(=O)[C@H](CCC(=O)O)NC(=O)[C@H](CCC(=O)O)NC(=O)[C@H](CCC(=O)O)NC(=O)[C@H](CCC(=O)O)NC(=O)[C@@H](N)CC(=O)O)[C@@H](C)OP(=O)(O)O)[C@@H](C)O)C(C)C)C(=O)N[C@@H](CC(=O)O)C(=O)N[C@@H](Cc1ccc(O)cc1)C(=O)N[C@@H](Cc1ccccc1)C(=O)N[C@@H](CC(=O)O)C(=O)N[C@@H](CCCCN)C(=O)N[C@@H](CCC(N)=O)C(=O)N[C@@H](CC(=O)O)C(=O)O [pT378-MST2^371-401] (H-DEEEEDG[pT]MKRNATSPQVQRPSFMDYFDKQD-OH), the Kd [2] was 0.296 µM.

B1: SAV1^1-90 (recombinant) (domain or fragment)
chain: MLSRKKTKNEVSKPAEVQGKYVKKETSPLLRNLMPSFIRHGPTIPRRTDICLPDSSPNAFSTSGDVVSRNQSFLRTPIQRTPHEIMRRES
B1 was tested, and the dephosphorylation of MST2 pT180 (1 µM MST2 kinase domain) by 0.1 µM PP2A A-C core in vitro, SAV1 1-90 at the indicated concentrations [4] was 100 µM.

B2: SAV1-ΔN198 (domain or fragment, human, UniProt Q9H4B6 199-383, looked up)
chain: LPLPPGWSVDWTMRGRKYYIDHNTNTTHWSHPLEREGLPPGWERVESSEFGTYYVDHTNKKAQYRHPCAPSVPRYDQPPPVTYQPQQTERNQSLLVPANPYHTAEIPDWLQVYARAPVKYDHILKWELFQLADLDTYQGMLKLLFMKELEQIVKMYEAYRQALLTELENRKQRQQWYAQQHGKNF
notes: SAV1, human, N-terminal 198 residues deleted (WW1, WW2 and SARAH domains); also called SAV1 ∆N198; SAV1 fragment containing both WW domains and the SARAH domain; source: E. coli BL21 (DE3)-T1R, co-expressed with MST2, purified (glutathione-Sepharose, TEV, Superdex 200); not shown: GST, N-terminal, cleaved
B2: binds [5].

B3: GST-SLMAP FHA (residues 1–140) (domain or fragment, human, UniProt Q14BN4 1-140, looked up)
chain: MPSALAIFTCRPNSHPFQERHVYLDEPIKIGRSVARCRPAQNNATFDCKVLSRNHALVWFDHKTGKFYLQDTKSSNGTFINSQRLSRGSEESPPCEILSGDIIQFGVDVTENTRKVTHGCIVSTIKLFLPDGMEARLRSD
notes: SLMAP, human, FHA domain, residues 1-140; also called GST-SLMAP FHA fusion protein; not shown: GST, N-terminal, kept
B3: binds [6].

B4: SAV1 ∆N198: SAV1 mutant which contains WW1/2 and SARAH domains (protein)
chain: B2 chain
modifications: left off: GST, N-terminal, cleaved
notes: SAV1 mutant which contains WW1/2 and SARAH domains
B4 was tested, and the “MST2 activation (T180 autophosphorylation) in vitro” value [7] was “could support MST2 auto-activation” and the “stimulation of MST2 kinase activity toward MOB1” value [8] was “did not stimulate the MST2 kinase activity toward MOB1”.

B5: SAV1 1–90: N-terminal fragment of SAV1 (residues 1–90), recombinant, refolded (protein)
chain: B1 chain
modifications: left off: FLAG, end not stated, kept
In the case of B5, the “inhibition of PP2A A-C dephosphorylation of MST2 pT180” value ([9]; 15 min pre-incubation with SAV1^1-90 at room temperature, 20 mM Tris pH 8.0, 100 mM NaCl, 30 min) is reported as “blocked the dephosphorylation of MST2 pT180 by PP2A A-C”, the “concentration needed for PP2A A-C inhibition” value ([9]; "Very high and non-physiological concentrations" needed) is reported as 100 µM and the “co-fractionation with recombinant PP2A A subunit” value [10] is reported as “co-fractionated”.
